The text below walks through data of patent US20260248939A1 (SYNAFFIX B V, published 2026).

The target of assay [1] is T1, Human PTK7 (CCK4 protein, ECD, His Tag, Sino Biological) (human, UniProt Q13308 31-704).
T1 construct: extracellular domain; Bought protein; also called hPTK7; HPTK7; not shown: His tag
T1 sequence (looked up): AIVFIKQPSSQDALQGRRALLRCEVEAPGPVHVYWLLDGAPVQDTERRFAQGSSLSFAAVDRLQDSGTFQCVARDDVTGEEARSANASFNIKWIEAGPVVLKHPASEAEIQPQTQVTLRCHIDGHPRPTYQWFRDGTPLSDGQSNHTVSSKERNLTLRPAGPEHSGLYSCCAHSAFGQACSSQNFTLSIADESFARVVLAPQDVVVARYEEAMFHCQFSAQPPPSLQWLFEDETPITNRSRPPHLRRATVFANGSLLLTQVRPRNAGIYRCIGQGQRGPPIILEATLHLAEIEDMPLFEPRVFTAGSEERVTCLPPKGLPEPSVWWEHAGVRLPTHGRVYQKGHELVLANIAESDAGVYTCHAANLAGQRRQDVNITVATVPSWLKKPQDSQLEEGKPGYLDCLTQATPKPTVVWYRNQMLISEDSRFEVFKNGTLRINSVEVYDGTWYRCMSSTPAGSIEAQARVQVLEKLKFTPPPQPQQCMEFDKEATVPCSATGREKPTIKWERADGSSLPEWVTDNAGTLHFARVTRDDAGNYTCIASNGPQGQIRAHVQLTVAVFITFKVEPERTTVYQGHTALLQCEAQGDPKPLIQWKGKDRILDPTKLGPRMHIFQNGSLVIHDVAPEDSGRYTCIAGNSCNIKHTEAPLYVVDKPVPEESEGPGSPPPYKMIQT
Nature of the assay: ELISA: His-tagged hPTK7 on nickel plate, ADC at 8 µg/mL (Example 25), goat anti-human IgG-HRP, TMB, absorbance at 652 nm, background-corrected.

Assay [2] has as its target T1, Human PTK7 (CCK4 protein, ECD, His Tag, …). Nature of the assay: ELISA: His-tagged PTK7 on nickel plate, ADC at 8 µg/mL (Example 25), goat anti-human IgG-HRP, TMB, absorbance at 652 nm, background-corrected.
Protocol: Nickel NTA plates (Pierce™ Nickel coated plated, ThermoScientific™) were washed three times prior to use. Human PTK7 (CCK4 protein, ECD, His Tag, Sino Biological), cynomolgus PTK7 (CCK4 protein, ECD, His Tag, Sino Biological) and Rat PTK7 (His Tag, Acro Biosystems) were dissolved at a concentration of 0.05 μg/mL in 0.1% BSA in PBS (PBA). 100 μL was added to each well and incubated while shaking for 1 hour at room temperature. After removal, the plate was washed 3× with 0.05% Tween-20 in PBS (washing buffer). ADCs were diluted in 0.1% PBA to a final concentration of 8 μg/mL and 100 μL was added to each well (in triplo). ADCs were incubated for 1 h at room temperature. Prior to the addition of 100 μL 1:1000 dilution of secondary antibody (Goat anti-human IgG, HRP conjugate, Invitrogen) the plate was washed 3× with washing buffer. The plate was incubated again for 1 h at room temperature and subsequently washed 3× with washing buffer and 3× with PBS. Finally, 100 μL TMB ELISA substrate (1 Step™ Turbo TMB ELISA substrate, ThermoScientific™) was added and incubated for 1 minute.
Assay [3] addresses T2, cynomolgus PTK7 (CCK4 protein, ECD, His Tag, Sino Biological) (cynomolgus, UniProt A0A2K5VNI5 39-712).
T2 construct: extracellular domain; Bought protein; also called cPTK7; cyno PTK7; not shown: His tag
T2 sequence: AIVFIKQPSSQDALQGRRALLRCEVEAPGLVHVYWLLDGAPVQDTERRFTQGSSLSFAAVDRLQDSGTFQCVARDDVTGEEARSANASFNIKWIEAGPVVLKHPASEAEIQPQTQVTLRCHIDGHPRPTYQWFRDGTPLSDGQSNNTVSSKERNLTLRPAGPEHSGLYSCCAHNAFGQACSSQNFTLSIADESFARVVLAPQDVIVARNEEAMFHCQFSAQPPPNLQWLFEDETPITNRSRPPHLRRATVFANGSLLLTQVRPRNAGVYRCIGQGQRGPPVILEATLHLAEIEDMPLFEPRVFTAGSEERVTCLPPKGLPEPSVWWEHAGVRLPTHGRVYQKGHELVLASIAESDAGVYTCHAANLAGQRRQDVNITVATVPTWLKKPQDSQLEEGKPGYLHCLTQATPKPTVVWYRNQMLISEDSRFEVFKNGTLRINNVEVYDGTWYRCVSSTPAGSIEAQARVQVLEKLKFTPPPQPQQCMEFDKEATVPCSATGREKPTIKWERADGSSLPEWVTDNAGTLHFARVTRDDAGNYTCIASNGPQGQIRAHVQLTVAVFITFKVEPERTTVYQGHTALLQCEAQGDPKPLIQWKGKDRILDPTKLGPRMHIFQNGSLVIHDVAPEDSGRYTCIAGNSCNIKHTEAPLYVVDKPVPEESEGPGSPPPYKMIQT
The assay is described as above.

The target in assay [4] is T3, Rat PTK7 (His Tag, Acro Biosystems) (rat, UniProt A0A8I6ALM9 40-713).
T3 construct: Bought protein; also called rPTK7; not shown: His tag
The assay is described as above.

B1: B12-3 (antibody, human IgG1, kappa, V domains shown)
VH: QVQLVQSGAEVKKPGASVKVSCQASGYRFSNFVIHWVRQAPGQRFEWMGWINPYNGNKEFSAKFQDRVTFTADTSANTAYMELRSLRSADTAVYYCARVGPYSWDDSPQDNYYMDVWGKGTTVIVSS
VL: EIVLTQSPGTLSLSPGERATFSCRSSHSIRSRRVAWYQHKPGQAPRLVIHGVSNRASGISDRFSGSGSGTDFTLTITRVEPEDFALYYCQVYGASSYTFGQGTKLERKR
notes: also called B12 (VI) conjugated with linker-drug 3; isotype control ADC
B1: in assay [1], the binding result was “no binding (tested: 8 µg/mL)”.

B2: 12C6a-3 (antibody, human IgG1, kappa, V domains shown)
VH: VQLVQSGGGLVHPGGSLRLSCAGSGFTFSTYLMYWVRQAPGKTLEWVSAIGSGGDTYYADSVKGRFTISRDNAKNSLYLQMNSLRAEDMAVYYCARGLGYWGQGTLVTVSS
VL: DIQMTQSPSSLSASVGDRVTITCRASQGISSWLAWYQQKPEKAPKSLIYAASSLQSGVPSRFSGSGSGTDFTLTISSLQPEDFATYYCQQYNSYPYTFGQGTKLEIKR
modifications: heavy-chain N-glycan trimmed to core GlcNAc, extended with 6-N3-GalNAc and clicked to BCN-HS-PEG2-HS-(va-PAB-Ex)2 (linker-drug 3, exatecan); average DAR 3.90
notes: Antibody-drug conjugate of IgG 12C6a (V)
On to B2, for which the binding result in assay [2], in assay [3] and in assay [4] was “no binding (tested: 8 µg/mL)” throughout.

B3: 4D5-3 (antibody, human IgG1, kappa, V domains shown)
VH: QVQLVESGGGVVQPGRSLRLSCAASGFTFSSYAFHWVRQAPGKGLEWVAVISYDGSIKYYADSVKGRFTISRDNSKNTLYLQMNSLRAEDTAVYYCARTYYFDYWGQGTLVTVSS
VL: EIVLTQSPDFQSVTPKEKVTITCRASQSIGSSLHWYQQKPDQSPKLLIKYASQSFSGVPSRFSGSGSGTDFTLTINSLEAEDAAAYYCHQSSSLPITFGQGTRLEIKR
modifications: heavy-chain N-glycan trimmed to core GlcNAc, extended with 6-N3-GalNAc and clicked to BCN-HS-PEG2-HS-(va-PAB-Ex)2 (linker-drug 3, exatecan); average DAR 3.91
For the molecule B3, the binding result in assay [2] is given as “binds”; in assay [4], “no binding (tested: 8 µg/mL)”.
